Laboratory results taken from patent publication US20090117111A1.

Biological target: FcγRIIIa on NK cells of V/F donors (both aa158 allotypes, V and F) (human)
Assay: cell-based or functional assay

Substance | ED50 for lysis of the Daudi cell line (ADCC, purified NK cells, V/F donors) [nM]
monoclonal antibody CHIR-12.12 | 0.002
rituximab (Rituxan) (antibody) | 0.021
